± gives the uncertainty stated by the source.
Assay: protein stability index of a GFP-peptide fusion (yeast GPS) (PSI 1-4); higher = more stable; sorted into four equal gates, so the index is relative within each strain
In short: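 The protein stability index of a peptide was calculated by multiplying its read frequency in each gate by that gate's number and adding the products. The peptides were tiled 17-residue stretches of yeast proteins, fused downstream of GFP on a Cherry-expressing plasmid and carried in yeast as a pooled library. Mid-log cultures in leucine-free medium were sorted into four equal gates by GFP/Cherry ratio, and each gate's plasmids were PCR-amplified and Illumina-sequenced.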

Sequence	protein stability index (doa10∆)	protein stability index (pdr5∆)	protein stability index (san1∆)	protein stability index (ubr1∆)
EAPAGNIDTITDAMTES [MCD1]	2.8 ± 0.079	3.04 ± 0.052	2.96 ± 0.072	3.16 ± 0.057
EASNTPIEHQFNPYGDN [PRE7]	3.15 ± 0.08	3.33 ± 0.089	3.54 ± 0.091	3.38 ± 0.086
EATAASHERFFLSQGLH [CSN12]	1.43 ± 0.16	1.28 ± 0.1	1.09 ± 0.24	1.35 ± 0.18
EATLESKLKEEEAALLI [ESC2]	2.86 ± 0.067	3.05 ± 0.058	2.88 ± 0.038	2.91 ± 0.05
EATLLTNSNNGSSNNNT [SNF5]	3 ± 0.087	3.32 ± 0.13	3.14 ± 0.1	3.21 ± 0.065
EAVELVIGLDSEHDKKR [YML103C/NUP188]	2.74 ± 0.2	3.55 ± 0.15	3.16 ± 0.18	3.37 ± 0.047
EDALYLGKRSILAAAHR [PRE2]	3.42 ± 0.062	3.33 ± 0.06	3.16 ± 0.067	3.31 ± 0.051
EDFDVEHFSDEETYEEK [RPO26]	3.64 ± 0.11	3.05 ± 0.2	3.19 ± 0.22	3.45 ± 0.11
EDGLGPLMAKSVKKAGA [ARP7]		3.48 ± 0.27		3.27 ± 0.14
EDGMIIDVNLNFARQLL [RRP40]	3.15 ± 0.086	3.23 ± 0.074	3.26 ± 0.079	3.11 ± 0.063
EDKFLYGDGNGKGDNDN [SWI3]	3.48 ± 0.24	3.35 ± 0.16	3.4 ± 0.08	3.42 ± 0.15
EDLFDDYPSTSLDIRHD [NUT1]	1.81 ± 0.081	2.9 ± 0.077	3.09 ± 0.058	2.05 ± 0.056
EDLLHYIEEKHPTIYES [POP4]	3.47 ± 0.078	3.4 ± 0.093	3.37 ± 0.077	3.27 ± 0.084
EDNGIVKALRNVPGVET [RPL4A]	1.77 ± 0.16		2.46 ± 0.11	2.47 ± 0.19
EDTPANDSSATRSWRPP [RPB8]	2.44 ± 0.24	2.88 ± 0.18	2.47 ± 0.2	2.95 ± 0.084
EEAKEESDDDMGFGLFD [RPP1A]	3.09 ± 0.053	3.15 ± 0.061	3.22 ± 0.028	3.26 ± 0.045
EEARRKHVSGKILGFVY [RPS22A]	2.82 ± 0.2	2.67 ± 0.18	2.97 ± 0.16	2.9 ± 0.097
EEEEDTTTTANINEVKK [NUT1]	3.24 ± 0.098	3.39 ± 0.11	3.09 ± 0.084	3.33 ± 0.15
EEEVTDQLEDLREHFKN [QCR6]	3.14 ± 0.17	3.06 ± 0.083	3.26 ± 0.09	3.29 ± 0.14
EEISFSLSEGCDILVAT [PRP28]	2.62 ± 0.1	2.69 ± 0.06	2.72 ± 0.071	2.96 ± 0.058
EELKNMFLYILKHLEEM [RRI2]	2.25 ± 0.16	1.93 ± 0.11	1.32 ± 0.11	1.73 ± 0.097
EEQKSSDTSKPAFTFGA [YJL041W/NSP1]	3.25 ± 0.07	3.15 ± 0.06	2.89 ± 0.059	3.23 ± 0.05
EERSNNLLTPQPTNFTT [MCD1]	3.02 ± 0.061	3.11 ± 0.063	2.91 ± 0.061	3.12 ± 0.05
EETDDEDKQNIEINEDN [RRI2]	3.52 ± 0.08	3.25 ± 0.07	3.26 ± 0.045	3.25 ± 0.038
EEVVSNDEGVWDLVDER [PRP8]	3.56 ± 0.073	3.47 ± 0.057	3.42 ± 0.07	3.49 ± 0.058
EEYKKSLYAYCHSKLRG [GRR1]	2.29 ± 0.074	2.31 ± 0.07	2.42 ± 0.09	2.44 ± 0.075

Sequence	protein stability index (doa10∆)	protein stability index (pdr5∆)	protein stability index (san1∆)	protein stability index (ubr1∆)
EFEYDDEPDEQGNPKKR [CYT1]	3.21 ± 0.076	3.28 ± 0.073	3.04 ± 0.07	3.15 ± 0.07
EFFSTNWLSIFNDFSNI [REC8]	2.83 ± 0.075	2.91 ± 0.067	2.09 ± 0.098	2.83 ± 0.08
EFIFGTYNMIDAAAEKR [ARP7]	2.99 ± 0.057	3.02 ± 0.057	3.08 ± 0.044	3.12 ± 0.04
EFISIYSNSHQMAVHIA [RET1]	3.25 ± 0.11	3.45 ± 0.19	3.04 ± 0.11	3.11 ± 0.087
EFLYSKAGREELERVNV [QCR8]			3.28 ± 0.11	3.27 ± 0.17
EFQIEDAIWSLVFQLAK [SRB8]	3.63 ± 0.18	3.36 ± 0.23		
EFTLFMDIAERIAVLHQ [YGL172W/NUP49]	2.77 ± 0.075	2.54 ± 0.056	2.24 ± 0.068	2.9 ± 0.048
EFVSYYYAHSIPSSKID [SNU114]	2.01 ± 0.045	1.9 ± 0.052	2.07 ± 0.063	1.62 ± 0.039
EGIEKMGVRTFSQKEMA [FAS2]	2.96 ± 0.16	2.73 ± 0.24	2.88 ± 0.071	2.89 ± 0.061
EGKRIAFGFVDRTLPHF [RPO21]	2.89 ± 0.058	2.98 ± 0.054	2.95 ± 0.048	3.13 ± 0.035
EGLELLGWIHTQTEELK [PRP8]	2.94 ± 0.1	2.65 ± 0.091	3.16 ± 0.053	3.29 ± 0.099
EGRLYQVEYALESISHA [PRE9]	2.09 ± 0.056	2.19 ± 0.068	1.98 ± 0.086	1.85 ± 0.048
EGTSISVHLIECYKQLF [YCS4]	3.46 ± 0.14	3.39 ± 0.12	3.42 ± 0.14	3.3 ± 0.063
EHFSHFGHIMEDFQVLR [YDL088C/ASM4]	3.03 ± 0.063	2.92 ± 0.045	2.54 ± 0.059	2.44 ± 0.045
EHIIRDVHNGYILRYLH [COB]	2.35 ± 0.23	1.7 ± 0.13	1.39 ± 0.16	2 ± 0.11
EHRRYDDQLKQRRQNIR [RPT4]	2.62 ± 0.18	2.46 ± 0.18	2.29 ± 0.14	2.69 ± 0.12
EHSQVEQTCVKLLDSGC [SRP72]	3.15 ± 0.068	3.38 ± 0.083	3.11 ± 0.085	3.34 ± 0.063
EIAGLSPYERRLIDLIR [RPL36A]	2.31 ± 0.088	2.37 ± 0.077	2.02 ± 0.14	2.29 ± 0.071
EIEIEGVMSLLQKSSKS [YAR002W/NUP60]	2.99 ± 0.11	3.05 ± 0.16	3.26 ± 0.09	3.25 ± 0.072
EIFQLFTNPSVDIQIIN [SWI1]	2.69 ± 0.081	2.88 ± 0.09	2.55 ± 0.078	2.54 ± 0.064
EILTNQQRGITYLNEVL [YGR119C/NUP57]	2.7 ± 0.068	3.09 ± 0.079	3.12 ± 0.061	2.71 ± 0.066
EIMYTGVSISVSFNSKQ [SMC3]	1.61 ± 0.089	1.99 ± 0.07	2.83 ± 0.087	2.29 ± 0.1
EISTSKKNNLEFGTYGK [RPN14]	2.6 ± 0.08	2.13 ± 0.061	2.17 ± 0.082	2.04 ± 0.059
EITAKEVYDFTHAVGNN [FAS1]	3 ± 0.065	3.15 ± 0.051	2.92 ± 0.046	3.08 ± 0.039
EITQQEKGLNELSIRDV [SMC4]	1.75 ± 0.11	2.64 ± 0.076	2.74 ± 0.089	1.85 ± 0.087
EITVVKPDSDIVALSSE [PRE6]	3.1 ± 0.058	3.23 ± 0.051	3.24 ± 0.04	3.3 ± 0.049

Reference: the supplement of paper PMC9732359
